The target in experiment [1] is T1, hemagglutinin-tagged wild type human type 2 CCK receptor (human, UniProt P32239 1-447).
T1 sequence (looked up): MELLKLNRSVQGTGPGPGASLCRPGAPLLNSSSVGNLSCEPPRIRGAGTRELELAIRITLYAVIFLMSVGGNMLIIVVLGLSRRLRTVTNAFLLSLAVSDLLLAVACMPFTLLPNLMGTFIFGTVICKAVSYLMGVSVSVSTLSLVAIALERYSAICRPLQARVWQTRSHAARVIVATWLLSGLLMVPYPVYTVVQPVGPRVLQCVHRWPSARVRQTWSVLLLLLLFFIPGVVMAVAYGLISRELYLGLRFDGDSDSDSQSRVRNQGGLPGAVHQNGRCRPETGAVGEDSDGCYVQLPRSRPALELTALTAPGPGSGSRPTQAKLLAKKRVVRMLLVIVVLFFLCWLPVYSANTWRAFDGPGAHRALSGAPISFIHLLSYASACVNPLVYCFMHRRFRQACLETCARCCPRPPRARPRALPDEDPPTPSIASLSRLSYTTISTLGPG
Description: cell-based or functional assay.

The target of experiment [2] is T1, hemagglutinin-tagged wild type human …. Description: radioligand binding.

Square brackets hold non-standard residues; d marks the D form. Ends that are not written are not given here. * marks the point of attachment. Benzoyl(4-benzoyl) = O=C(c1ccccc1)c1ccc(C(=O)*)cc1; Bpa = N[C@@H](Cc1ccc(C(=O)c2ccccc2)cc1)C(=O)O; Phe(NO2) = nitro-phenylalanine (NO2-Phe); Desaminotyrosyl = O=C(CCc1ccc(O)cc1)*; Nle = CCCC[C@H](N)C(=O)O Some results are limits rather than exact numbers.

Four molecules from PMC3739435 (Peptides, 2013) can be followed below.

In general, IC50 refers to the concentration that gives 50% inhibition. Read a low IC50 as greater potency in that assay.

Regarding [Desaminotyrosyl]G[Phe(NO2)]Y[Nle]GW[Nle]DF (ends and bridges not checked) [(des-amino-Tyr)-Gly-[(NO2-Phe26,Nle28,Nle31)CCK-26-33]], the “intracellular calcium responses in CHO-CCK2R cells, EC50” value in experiment [1] is over 1000 nM. As to [Desaminotyrosyl]GDY[Nle]GW[Nle][Bpa]F (ends and bridges not checked) [(des-amino-Tyr)-Gly-[(Nle28,Nle31,Bpa32)CCK-26-33]], in experiment [1], the “intracellular calcium responses in CHO-CCK2R cells, EC50” value is over 1000 nM. The molecule further displayed an IC50 in experiment [2] of over 1000 nM. With [Desaminotyrosyl]GDY[Nle]G[Bpa][Nle]DF (ends and bridges not checked) [(des-amino-Tyr)-Gly-[(Nle28,Bpa30,Nle31)CCK-26-33]], the concentration for half-maximal inhibition (IC50) in experiment [2] was over 1000 nM.

In turn, [Desaminotyrosyl]GDY[Nle]GWK(Benzoyl(4-benzoyl))DF (ends and bridges not checked) [(des-amino-Tyr)-Gly-[(Nle28,(BzBz)Lys31)CCK-26-33]] returned an IC50 in experiment [2] of over 1000 nM.
